Patent publication CN113061185A (EXCYTE BEIJING PHARMACEUTICAL TECH DEVELOPMENT CO LTD, dated 2021)
Numbering of substitutions follows the chain as printed.

B1: B10 parental antibody as expressed and purified in Example 3 (antibody, V domains shown)
VH: QVQLQQSGAEVKKPGSSVKVSCKASGGTFSSYAISWVRQAPGQGLEWMGGIIPIFGTANYAQKFQGRVTITADESTSTAYMELSSLRSEDTAVYYCARGWYFDLWGRGTLVTVSS
VL: LPVLTQPPSASGTPGQRVTISCSGSSSNIGGYSVNWYQQFPGTAPKLLIYRNNQRPSGVPDRFSGSKSGASASLAISGLQSEDEADYYCAAWDDSLIGYVFGTGTQLTVL
notes: also called 亲本B10; B10亲本抗体
B2: B10.3 (affinity-matured mutant of B10) (scFv)
scFv: QVQLQQSGAEVKKPGSSVKVSCKASGGTFSKSAIQWVRQAPGQGLEWMGGVIPIFGTANYAQKFQGRVTITADESTSTAYMELSSLRSEDTAVYYCARGWYLDLWGRGTLVTVSSGGSSRSSSSGGGGSGGGGLPVLTQPPSASGTPGQRVTISCSGSSNNIGGYSVNWYQQFPGTAPKLLIYRNNQRPSGVPDRFSGSKSGASASLAISGLQSEDEADYYCAAWDDSVIGWLFGTGTQLTVL
notes: also called 突变体B10.3
B3: B10.5 (affinity-matured mutant of B10) (scFv)
scFv: B2 scFv with Q35H, N160S, E217V, V229L, W232Y, L233V
notes: also called 突变体B10.5
B4: B10.9 (affinity-matured mutant of B10) (scFv)
scFv: B2 scFv with V229E
notes: also called 突变体B10.9
B5: B10.4 (affinity-matured mutant of B10) (scFv)
scFv: B2 scFv with Q35M
notes: also called 突变体B10.4

These binders were tested against T1, BCMA on the surface of BCMA-positive cell lines H929 (NCI-H929) and RPMI8226 (human, UniProt Q02223 1-184) (assay: flow cytometry (FACS), apparent affinity on BCMA-bearing cells).
T1 construct: whole, on cells; Endogenous BCMA of the cell lines; also called 细胞膜表面的BCMA抗原
T1 sequence (looked up): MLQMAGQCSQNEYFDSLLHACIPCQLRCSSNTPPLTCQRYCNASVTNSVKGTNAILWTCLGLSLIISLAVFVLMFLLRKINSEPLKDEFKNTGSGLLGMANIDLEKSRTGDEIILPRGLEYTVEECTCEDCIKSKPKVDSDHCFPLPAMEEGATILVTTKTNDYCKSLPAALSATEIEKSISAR

For B1, the Kd was 0.3 nM.

These binders were tested against T1, BCMA on the surface of BCMA-positive … (assay: flow cytometry on H929 cells).

Point of comparison: B2, “细胞结合百分率 (percent of cells bound)” value 98%. Against it:
- B1 — lower, 75.3%
- B3 — lower, 97.2%
- B4 — lower, 91.6%
- B5 — lower, 97.9%

Each binder was assayed against T1, BCMA on the surface of BCMA-positive … (assay: flow cytometry on RPMI8226 cells; EC50 relative to J6).

Point of comparison: B2, “相对于J6提高倍数 (fold improvement of EC50 over J6)” value 97.1 fold. Against it:
- B1 — lower, 1.74 fold
- B3 — lower, 67.5 fold
- B4 — lower, 60.7 fold
- B5 — lower, 79.9 fold

Each binder was assayed against T1, BCMA on the surface of BCMA-positive … (assay: flow cytometry, antibody titration on RPMI8226 cells).

Point of comparison: B3, EC50 0.0406 µg/mL. Against it:
- B1 — 39-fold higher, 1.57 µg/mL
- B2 — within 1.5-fold, 0.0282 µg/mL
- B4 — within 1.5-fold, 0.0451 µg/mL
- B5 — within 1.5-fold, 0.0343 µg/mL

What follows are binders tested against T1, BCMA on the surface of BCMA-positive … (assay: flow cytometry on RPMI8226 cells).

Point of comparison: B4, “细胞结合百分率 (percent of cells bound)” value 42.9%. Against it:
- B1 — lower, 5.54%
- B2 — higher, 54.9%
- B3 — higher, 58.2%
- B5 — higher, 57.5%

Target: T1, BCMA on the surface of BCMA-positive …
Assay: flow cytometry on RPMI8226 cells; EC50 relative to J6
Remark: another data set of the same source

For B1, the “fold improvement of EC50 over J6” value was ~1.5 fold.

Each binder was assayed against T2, BCMA-Fc fusion protein (Acrobiosystems, catalogue no. BC7-H5254) (human, UniProt Q02223 1-54) (assay: ELISA on BCMA; EC50 relative to J6).
T2 construct: Bought fusion protein; Used as coated antigen in ELISA; also called BCMA抗原; BCMA-Fc抗原; not shown: human Fc
T2 sequence (looked up): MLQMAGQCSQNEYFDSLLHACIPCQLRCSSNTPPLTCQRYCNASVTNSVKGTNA

Point of comparison: B5, “Fold of J6 (EC50 ratio)” value 1.55 fold. Against it:
- B2 — lower, 1.29 fold
- B3 — lower, 1.35 fold
- B4 — lower, 1.43 fold

Each binder was assayed against T2, BCMA-Fc fusion protein (Acrobiosystems, …) (assay: ELISA, intrinsic affinity).

B1 showed a Kd of ~10 nM.

The binders below were run against T2, BCMA-Fc fusion protein (Acrobiosystems, …) (assay: ELISA; affinity estimated from the EC50 ratio to J6 (J6 taken as 0.2 nM)).

Point of comparison: B2, Kd 0.26 nM. Against it:
- B3 — within 1.5-fold, 0.27 nM
- B4 — within 1.5-fold, 0.29 nM
- B5 — within 1.5-fold, 0.31 nM
